{"source": "patent US12624096B2", "about": "“Anti-tau antibodies and methods of use thereof” (GTInvent Limited, priority 2020, dated 2026)", "key": {"plasma tau": {"tested_on": "plasma tau", "assay": "Plasma tau (Simoa) after S1D12 immunotherapy", "type": "in vivo, mouse", "conditions": "L66 mice", "procedure": "In a six-week repeat-dose study, a total of 12 WT, 12 Line 1 (L1) and 12 Line 66 homozygotes (L66+/*) female mice aged 2-months at the beginning of the study were used (Table 32 for group size). Mice in each genotype were injected intraperitoneally (i.p.) with either vehicle or S1D12 (30 mg/kg), once per week, for six consecutive weeks.\nThree-step assays were performed and analysed as per previously described plasma screening methods in this document."}, "dGAE [1]": {"target": "T1, dGAE (Homo sapiens, UniProt P10636)", "T1 sequence (P10636 614-708)": "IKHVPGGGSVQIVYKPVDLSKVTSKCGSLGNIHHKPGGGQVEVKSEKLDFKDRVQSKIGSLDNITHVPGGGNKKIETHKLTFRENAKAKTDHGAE", "assay": "dGAE fibril assembly, transmission electron microscopy", "type": "biochemical", "conditions": "dGAE:antibody 4:1 or 1:1, 700 rpm, 37° C., 3 days", "procedure": "(§1) dGAE protein was diluted into 10 mM phosphate buffer, pH 7.4 (PB) with monoclonal antibody s1D12 at a ratio of 4:1 protein: Ab (100 μM dGAE+25 μM s1D12 and 10 μM dGAE+2.5 μM s1D12) or 1:1 (25 μM dGAE+25 μM s1D12).\n(§2) As a positive control, dGAE was prepared at a final concentration of 10, 25 or 100 μM in 10 mM PB. Negative controls consisted of dGAE with a non-tau IgG antibody at a ratio of 4:1 (10 μM dGAE+2.5 μM anti-ovalbumin), or antibody alone (25 or 2.5 μM s1D12 and 2.5 μM anti-ovalbumin). Samples were agitated at 700 rpm at 37° C., for 3 days.\nTransmission electron microscopy (TEM), circular dichroism (CD) and Thioflavin S (ThS) assays were performed as detailed in Al-Hilaly et, al. (2018) J. Mol. Biol. 430, 4119-4131. Briefly, TEM grids were prepared by adding 4 μL of sample to a carbon-coated grid followed by a wash with milli-Q filtered water then staining twice with 2% uranyl acetate. Grids were air dried and then imaged using a JEOL electron microscope operating at 80 kV."}, "dGAE [2]": {"target": "T1, dGAE", "assay": "dGAE fibril assembly, Thioflavin S fluorescence", "type": "biochemical", "conditions": "25 and 100 μM dGAE, ratios 4:1 or 1:1", "procedure": "as §1, §2\nFor CD, 60 μL sample was placed in a 0.1 mm quartz cuvette and placed into a JASCO spectropolarimeter. 100 μL ThS in 20 mM MOPS buffer was added to 50 μL of each sample to a final concentration of 20 μM, mixed well, incubated at room temperature for 10 minutes then fluorescence intensity measured in a Cary Eclipse spectrophotometer using an excitation wavelength of 440 nm. Baseline readings from 10 mM PB were subtracted from CD and ThS measurements."}, "[3]": {"assay": "Pharmacokinetic study of S1D12 mAb, single dose, plasma and brain (dGAE ligand binding ELISA)", "type": "in vivo, mouse", "conditions": "single dose 30 mg/kg i.p., NMRI mice, plasma", "procedure": "For the PK study, a total of 42 female NMRI mice (Swiss-type mouse, Naval Medical Research Institute) aged 6 months were allocated into six groups according to sample collection time (Table 30 for group size). Animals were injected intraperitoneally with S1D12 (30 mg/kg) and sacrificed 24-, 48-, 72-hours and 7-, 14- and 31-days after injection to collect blood and brain samples. A control group was also included in which animals were sacrificed to collect blood and brain, but no test item was administered.\nBlood samples were centrifuged to obtain plasma at 2000×g for 5 min at 6° C., and samples were stored at −20° C. After blood collection, each mouse was perfused with heparinized saline for 2-3 minutes and the entire brain removed rapidly and snap frozen in liquid nitrogen and stored at −80° C.\nBriefly, dGAE (1 μg/mL) was used to coat ELISA plates and blocked with 2% Marvel. […] Following washing, HRP-conjugated anti-mouse IgG as detector was added, and the assay developed using TMB solution as normal. The absorbance at 450 nm was read using a Clariostar plate reader (BMG Labtech) and MARS Clariostar software used to calculate S1D12 concentration from a standard curve.\nAverage values from each group (representing a time point) was plotted (FIG. 10) and the in vivo half-life, Cmax and Tmax calculated by performing a non-compartmental analysis of the plasma data using the PKSolver2.0 software (FIG. 51, Table 31). […] Here a higher coating concertation of dGAE at 10 μg/ml was used to compete off antibody binding to tau present in the brain."}, "[4]": {"tested_on": "tau protein in brain homogenate", "assay": "Capture ELISA on transgenic mouse brain lysates", "type": "binding", "conditions": "S1D12 mAb capture; WT, L1, L66+/- and L66+/+", "procedure": "Mouse brain lysates were prepared from wildtype, Line 1, Line 66+/+ and Line 66+/− (Melis et al., 2015, all surplus from Charles River, part of study R0144). All animals were female, 7-8 months old except Line 66+/+ which were 5 months old. […] The L1 cDNA construct (FIG. 23) contains human tau cDNA coding for amino acid residues 296-390 with a signal sequence and related sequences in a murine Thy-1 expression cassette. For brain lysate preparation, half brains were sectioned into four and the individual sections were homogenised in 400 μl of ice cold RIPA buffer (Cell signalling Technology) containing protease and phosphatase inhibitors. Total protein concentrations for individual samples were established by BCA-assay and each sample was subsequently diluted to 1 mg/ml for future experiments.\nFor capture ELISA, 100 µL S1D12 capture mAb was used to coat a nunc 96 well Maxisorp plate at 1 μg/ml and incubated for 1 hour at 37° C. Plate was washed as previously and then blocked for 1 hour at 37° C., in 2% MPBS. Brain homogenate samples (50 ng total protein) from each mouse type were added to the first wells and double diluted across the plate in PBS. These samples were left to incubate at RT for 1 hour. Various detection scAbs encompassing epitopes of interest were then added to the plate at 1 μg/ml and incubated for 1 h at RT. […]"}}, "note": "“Also recorded” adds a separate entry of the source.", "data": [{"molecule": "S1D12: anti-tau clone from immunised sheep, SEQ ID NO: 32 (protein, S1D12 amino acid sequence) scFv: QVQLQESGPSLVKPSQTLSLTCTVSGFSLNNNAVGWVRQAPGKVPESLVGCSSDGTCYYNSALKSRLDITRDTSKNQISLSLSSVTTDDAAVYYCTRGHYSIYGYDYLGTIDYWGPGLLVTVSSEGKSSGASGESKVDDQAVLTQPSSVSGSLGQRVSITCSGSSSNVGGGNSVGWYQHLPGSGLKTIIYDTNSRPSGVPDRFSGSRSGNTATLTINSLQAEDEGDYYCVTGDSTTHDDLVGSGTRLTVLG", "values": [{"measurement": "increase in plasma tau vs vehicle, NT1 assay", "setting": "plasma tau", "result": "four-fold increase"}, {"measurement": "plasma tau, NT1 assay (BT2 capture with Tau12 detection)", "setting": "plasma tau; S1D12 mAb 30 mg/kg weekly for 6 weeks", "result": "3.2 ± 0.42", "unit": "pg/mL"}, {"measurement": "increase in plasma tau vs vehicle, BT2-HT7", "setting": "plasma tau; did not reach statistical significance", "result": "two-fold increase"}, {"measurement": "dGAE fibrils observed by TEM", "setting": "dGAE [1]", "result": "no fibrils were present; also recorded: no fibril formation is observed"}, {"measurement": "ThS fluorescence signal at 483 nm", "setting": "dGAE [2]", "result": "this signal was abolished; also recorded: abolished when s1D12 is included in the assembly mixture"}, {"measurement": "Tmax (time of peak plasma concentration)", "setting": "[3]", "result": 24, "unit": "h"}, {"measurement": "t1/2 (elimination half-life from plasma)", "setting": "[3]; non-compartmental analysis", "result": 256.2, "unit": "h"}, {"measurement": "Cmax", "setting": "[3]; read-out: Cmax (peak plasma concentration)", "result": 1460, "unit": "nM"}]}, {"molecule": "S1G2: anti-tau clone, SEQ ID NO: 81 (protein, S1G2 amino acid sequence) scFv: QVQLQESGPSLVKPSQTLSLTCTVSGFSLTSNSVGWVRQAPGKAPEWVAGIDTDGEEGYNPALNSRLSITRDTSKSQVSLSLSSVTSEDTAVYYCGRSYRADGLAYGYVQAIDYWGPGLLVTVSSEGKSSGASGESKVDDQAVVTQPSSVSGSLGQRVSITCSGSFIGISSVGWFQQLPGSGLRTIIVASDGRPSGVPDRFSMSKSGNTATLTISSLQAEDEADYFCGSSDRTPYTGVFGSGTRLTVLG", "values": [{"measurement": "tau detection in mouse brain homogenate", "setting": "[4]", "result": "tau protein was detected in 50 μg of total brain protein in all four different sample types"}]}]}
